{"source": "patent US10413607B2", "about": "“Antibody specifically binding to ErbB3 and use thereof” (ISU ABXIS CO., LTD., priority 2015, dated 2019)", "molecules": {"B1": {"name": "442S1: modified anti-ErbB3 antibody from lead antibody 442P (CDR mutagenesis) (antibody, V domains shown)", "VH": "EVQLLESGGGLVQPGGSLRLSCAASGFTFSDYDMSWVRQAPGKGLEWVSTIDLDSGSIYYADSVQGRFTISRDNSKNTLYLQMNSLRAEDTAVYYCAKDLHMGPEGPFDYWGQGTLVTVSS", "VL": "QSVLTQPPSASGTPGQRVTISCSGSSSNIGSNSVSWYQQLPGTAPKLLIYSDNHRPSGVPDRFSGSKSGTSASLAISGLRSEDEADYYCQGWDTSLSGHVFGGGTKLTVLG", "modifications": "Heavy chain variable region of antibody 442S1; Light chain variable region of antibody 442S1"}, "B2": {"name": "451M7: modified anti-ErbB3 antibody from lead antibody 451P (CDR mutagenesis) (antibody, V domains shown)", "VH": "EVQLLESGGGLVQPGGSLRLSCAASGFTFSYYDMSWVRQAPGKGLEWVSAIYYDSGSIYYADSAKGRFTISRDNSKNTLYLQMNSLRAEDTAVYYCAKDRLFESDSTFDYWGQGTLVTVSS", "VL": "B1 VL with S26P, S31N, S35T, S51Y, N53S, Q90G, G91S, T94A, S97N, H99Y", "modifications": "Heavy chain variable region of antibody 451M7; Light chain variable region of antibody 451M7"}, "B3": {"name": "442S6: modified anti-ErbB3 antibody from lead antibody 442P (CDR mutagenesis) (antibody, V domains shown)", "VH": "B1 VH with T50S, D52Y, L53P, I58T, Y59D, L100R, G103W", "VL": "B1 VL with V34G, S51A, H54W, Q90A, G91A, T94S, H99Y", "modifications": "Heavy chain variable region of antibody 442S6; Light chain variable region of antibody 442S6"}, "B4": {"name": "451M6: modified anti-ErbB3 antibody from lead antibody 451P (CDR mutagenesis) (antibody, V domains shown)", "VH": "B2 VH with Y31H", "VL": "B1 VL with S26P, S31N, S35T, S51Y, N53S, Q90G, G91S, T94A, S97N, H99Y", "modifications": "Heavy chain variable region of antibody 451M6; Light chain variable region of antibody 451M6"}, "B5": {"name": "451M5: modified anti-ErbB3 antibody from lead antibody 451P (CDR mutagenesis) (antibody, V domains shown)", "VH": "B2 VH with Y31D", "VL": "B1 VL with S26P, S31N, S35T, S51Y, N53S, Q90G, G91S, T94A, S97N, H99Y", "modifications": "Heavy chain variable region of antibody 451M5; Light chain variable region of antibody 451M5"}}, "key": {"ZR-75-30 cells": {"system": "ZR-75-30 cells", "experiment": "Paclitaxel resistance, caspase 3/7 activity in ZR-75-30 breast cancer cells with HRG", "type": "cell-based", "settings": "100 ng/mL HRG, 10 nM Paclitaxel, 25 μg/mL 442S1, about 72 hours; FIG. 10", "description": "About 1×10^4 ZR-75-30 cells (American Type Culture Collection) were inoculated onto a plate and incubated in RPMI 1640 medium (Invitrogen) including 10% (v/v) FBS at 37° C. under 5% CO2 conditions for about 24 hours. The medium was then exchanged with fresh medium (100 ng/mL HRG added) including 0.1% (v/v) FBS, and further incubation was performed at 37° C. under 5% CO2 conditions for about 24 hours. 10 nM of Paclitaxel (Bristol-Myers Squibb) and 25 μg/mL of antibody 442S1 were added to the cultured cells and incubated at 37° C. under 5% CO2 conditions for about 72 hours. The cultured cells were collected, and the activity of caspase 3/7 as an apoptotic marker was measured using a Caspase 3/7 Substrate Assay (Promega)."}, "[1]": {"system": "FaDu human head and neck cancer cells", "experiment": "Cetuximab resistant FaDu xenograft model", "type": "in vivo, NOD SCID mice", "settings": "after Cetuximab failure; 10 mg/kg 442S1, 5 mg/kg Cetuximab, twice a week, 2 weeks; FIG. 12", "procedure": "FaDu human head and neck cancer cells (Shanghai Institutes of Biological Sciences) were incubated in EMEM medium (Hyclone) including 10% FBS (Invitrogen), 0.01 mM NEAA (Non-Essential Amino Acid, Hyclone), and 2 mM L-glutamine (Invitrogen). About 5×10^6 FaDu cancer cells were suspended in 100 μl of PBS and then subcutaneously injected into the frank region of the female NOD SCID mice (HFK Bio-Technology Co., Ltd.). Weights of the mice were measured twice a week, and tumor volume was calculated using the equation of “0.5 a×b^2”, where a and b were the long and short diameters of the tumor, respectively. When the tumor volume reached about 165 mm^3 after 8 days from the inoculation of the cancer cells, the mice were randomly selected. […] Tumor volumes were measured twice a week."}, "[2]": {"biological_target": "T1, recombinant human ErbB3 protein (Homo sapiens, UniProt P21860)", "T1 construct": "purchased R&D systems", "experiment": "Binding affinity of anti-ErbB3 antibody to human ErbB3 protein (Octet QK384)", "settings": "immobilized human ErbB3; for ka (association constant): binding phase about 900 seconds; for kd (dissociation constant): dissociation phase about 1200 seconds", "procedure": "In particular, the binding affinities of the anti-ErbB3 antibodies to the recombinant human ErbB3 protein (R&D systems) and the antigen-antibody interactive dynamics were measured using an Octet® QK384 system (Pall Life Sciences). After activation of carboxyl groups in 20 mM of 1-ethyl-3-(3-dimethylaminopropyl)carbodiimide hydrochloride (EDC) and 40 mM of N-hydroxysulfosuccinimide (sulfo-NHS) solution on an AR2G sensor (ForteBio), 10 μg/mL of human ErbB3 protein solution diluted with 10 mM of sodium acetate (pH 4.0) (ForteBio) was added to immobilize human ErbB3 protein onto the AR2G sensor. The AR2G sensor to which the human ErbB3 protein was immobilized was treated with 1 M of ethanolamine (ForteBio) to inactivate the remaining unreacted carboxyl groups."}, "[3]": {"system": "FaDu head and neck cancer, pancreatic cancer, or lung cancer", "experiment": "Tumor growth inhibition, FaDu head and neck, pancreatic or lung cancer animal model", "type": "in vivo", "procedure": "The antibody 442S1 was administered into FaDu head and neck cancer, pancreatic cancer, or lung cancer animal model, and the antibodies 442P or 472P antibodies were administered into gastric cancer animal model, in the same manner as described in Examples 3.1 to 3.3."}}, "note": "Residue numbers refer to the chain shown, from its start.", "data": [{"molecule": "CC(=O)O[C@H]1C(=O)[C@@]2(C)[C@H]([C@H](OC(=O)c3ccccc3)[C@]3(O)C[C@H](OC(=O)[C@H](O)[C@@H](NC(=O)c4ccccc4)c4ccccc4)C(C)=C1C3(C)C)[C@]1(OC(C)=O)CO[C@@H]1C[C@@H]2O", "note": "[Paclitaxel]", "values": [{"measurement": "activity of caspase 3/7", "setting": "ZR-75-30 cells", "result": "reduced"}]}, {"molecule": "B1", "values": [{"measurement": "tumor suppression effect compared with Cetuximab alone", "setting": "[1]", "result": "significant tumor suppression effect"}, {"measurement": "ka (association constant)", "setting": "[2]", "result": 522000, "unit": "M⁻¹ s⁻¹"}, {"measurement": "kd (dissociation constant)", "setting": "[2]", "result": "3.94e-07", "unit": "s⁻¹"}, {"measurement": "tumor volume relative to negative control group", "setting": "[3]", "result": "tumor volume was reduced"}]}, {"molecule": "B2", "values": [{"measurement": "ka (association constant)", "setting": "[2]", "result": "1.35e+06", "unit": "M⁻¹ s⁻¹"}, {"measurement": "kd (dissociation constant)", "setting": "[2]", "result": "6.63e-06", "unit": "s⁻¹"}]}, {"molecule": "B3", "values": [{"measurement": "ka (association constant)", "setting": "[2]", "result": 872000, "unit": "M⁻¹ s⁻¹"}, {"measurement": "kd (dissociation constant)", "setting": "[2]", "result": "<1e-07", "unit": "s⁻¹"}]}, {"molecule": "B4", "values": [{"measurement": "ka (association constant)", "setting": "[2]", "result": "1.2e+06", "unit": "M⁻¹ s⁻¹"}, {"measurement": "kd (dissociation constant)", "setting": "[2]", "result": "4.17e-06", "unit": "s⁻¹"}]}, {"molecule": "B5", "values": [{"measurement": "ka (association constant)", "setting": "[2]", "result": "1.52e+06", "unit": "M⁻¹ s⁻¹"}, {"measurement": "kd (dissociation constant)", "setting": "[2]", "result": "3.29e-05", "unit": "s⁻¹"}]}]}
